According to patent US10556936B2, “Immunogenic proteins and fragments thereof from allergenic mites” (ALK-ABELLÓ A/S, priority 2016, dated 2020):

Legend:
Assay type in all cases: cell-based, human
[1] = system: basophils in whole blood from HDM allergic donors; test: Basophil Activation Test (BAT); conditions: blood from HDM allergic individuals (n=14)
Outline: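 Whole blood from HDM-allergic donors (n=14) was stimulated for 1 h with test proteins across a concentration range, e.g. 1, 10, 100 or 1000 ng/ml. Basophil surface activation markers were measured by flow cytometry, with Der p 1 and Der p 2 tested at the same concentrations as controls.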

[2] = system: PBMC cells obtained from mite allergic patients and non-allergics; test: Ex vivo stimulation of PBMC: cytokine production (IFN-gamma, IL-9, IL-10, IL-17, IL-31)
Outline: (§1)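 Freshly isolated PBMC (5×10^6/ml) from mite-allergic patients or non-allergics cultured 5 days with test protein up to 10 ug/ml; IFN-gamma, IL-9, IL-10, IL-17, IL-31 in supernatants by multiplex immunoassay. T cell lines, raised 3 weeks on HDM extract, tested at 0.5 or 2 ug/ml protein in 72 h proliferation assay.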

[3] = system: T cell lines obtained from HDM allergic individuals and non-allergics; test: In vitro T cell proliferation test in T cell lines (Example 3); conditions: 0.5 or 2 ug/ml, 72 h; for % responders of in-vitro T cell proliferation test, Allergic: T cell lines from HDM allergic individuals (n=30); for % responders of in-vitro T cell proliferation test, Non-allergics: T cell lines from non-allergics (n=8)
Outline: as §1

[4] = system: HDM specific T-cell lines from HDM allergic donors; test: T cell reactivity of protein: IL-5/IFNg FluoroSPOT or 72 h T cell proliferation in HDM specific T-cell lines (Example 2); conditions: responding donors of tested HDM allergic donors
From the text: PBMCs from European HDM-allergic individuals were recruited in the Copenhagen region (defined by clinical history of allergy to house dust mite and specific IgE to group 1 and group 2 major allergens from Der p and/or Der f and with measured specific IgE (CAP) >0.7 kU/L towards Der p/f 1 or Der p/f 2. In addition, PBMCs from 10 US HDM-allergic individuals were recruited in San Diego (defined by Der p extract IgE titers greater than 0.35 kUA/L). PBMCs were isolated from whole blood by density gradient centrifugation according to manufacturers' instructions (Ficoll-Hypaque, Amersham Biosciences, Uppsala, Sweden). Der p- and Der f-specific extract IgE titers were determined using the ImmunoCAP system (Thermo Fisher, Uppsala, Sweden). In a separate series of experiments, pooled plasma from 10 European and 10 American HDM atopic individuals from the San Diego region, respectively, was utilized to run 2D immunoblots to elucidate IgE and IgG reactivity towards the proteins, which had at least one peptide with positive T cell response.
T cells reactivity was determined by establishment of HDM specific T-cell lines according to standard methods. In short, PMBCs from HDM allergic donors were cultured for 2-3 weeks in the presence of house dust mite allergen extract. The responses to proteins having SEQ ID NOs 1-44 were assessed by IL-5/IFNg FluoroSPOT (Mabtech FS-0108-10) according manufacturer protocol, (after 2 weeks) or proliferation in a standard 72 h T cell proliferation assay, as described in Henmar H et al., Clin Exp Immunol 2008; 153(3):316-23. (after 3 weeks). In addition these established T cell lines were used for further characterization and epitope mapping.

B1: A007: house dust mite protein; SEQ ID NO: 30 (Der f), 31 (Der p), 306 (Blo t) (protein)
chain: MAKFNYLPVDVQEELRNTANAIVSVGKGILAADESTGTIGKRFADINVENVEQNRQAYRQLLFYSEGIEQYISGVILFDETVYQKDDKGVPFPELLKKKGIIPGIKVDTGVVTLQGTNGESTTQGLDNLTKRCQEYYNQGCRFAKWRCVLKIGQDEPSSLAIVENANVLARYASCCQQARIVPIVEPEILPDGDHNLERCQKVTETVLAAVYKALNDHHVYLEGTLLKPNMVTPGQSCPQKASPQEVAQATVTALQRTVPAAVPGIVFLSGGQSEEEASVNLNAINQYQGKKPWALSFSYGRALQASALRAWQGKPENIGAGQKELLQRAKANVLAHKGQYVAGSIPSLASAKSNFVAQHKY
# of individuals of 14 with positive BAT test ([1]; 1 ng/ml): 0 | # of individuals of 14 with positive BAT test ([1]; 10 ng/ml): 0 | # of individuals of 14 with positive BAT test ([1]; 100 ng/ml): 0 | # of individuals of 14 with positive BAT test ([1]; 1000 ng/ml): 0 | % HDM allergic individuals with cytokine production in ex-vivo T cell assay IL-5 [2]: 6% | % HDM allergic individuals with cytokine production in ex-vivo T cell assay IL-9 [2]: 6% | % HDM allergic individuals with cytokine production in ex-vivo T cell assay IL-10 [2]: 44% | % HDM allergic individuals with cytokine production in ex-vivo T cell assay IL-13 [2]: 19% | % HDM allergic individuals with cytokine production in ex-vivo T cell assay IL-17 [2]: 38% | % HDM allergic individuals with cytokine production in ex-vivo T cell assay IL-31 [2]: 0% | % HDM allergic individuals with cytokine production in ex-vivo T cell assay INF-g [2]: 31% | % non-allergic individuals with cytokine production in ex-vivo T cell assay IL-5 [2]: 0% | % non-allergic individuals with cytokine production in ex-vivo T cell assay IL-9 [2]: 0% | % non-allergic individuals with cytokine production in ex-vivo T cell assay IL-10 [2]: 83% | % non-allergic individuals with cytokine production in ex-vivo T cell assay IL-13 [2]: 0% | % non-allergic individuals with cytokine production in ex-vivo T cell assay IL-17 [2]: 67% | % non-allergic individuals with cytokine production in ex-vivo T cell assay IL-31 [2]: 0% | % non-allergic individuals with cytokine production in ex-vivo T cell assay INF-g [2]: 33% | % responders of in-vitro T cell proliferation test, Allergic [3]: 21% | % responders of in-vitro T cell proliferation test, Non-allergics [3]: 38%

B2: 12 (protein, listed as Dermatophagoides pteronyssinus)
chain: MSISAHGGGLVNGIAGMENKFTVFTSGKPVSGLTVAFEGPTKPEINFNSTKDGSVDVGYIPKAGGQYKIHIKYEGKEIVGSPFKCNISGDESTHRKLTEKVKVGGPNISTGKVNQDNQLTIDCKEAGITGGISFAMEGPAKVEVSFRNNNDGTITVIYKPPTPGDYKLHLKFNDIHLPGSPYPIVVSA
% T cell responding donors to protein [4]: 5 of 24

B3: 18 (protein, listed as Dermatophagoides pteronyssinus)
chain: QSLFVDYNDYSCGSSQNETNELIQEFKIFKKNINGNENFKKINDFIEKARLFRDNAAKQMLEIDQQLLTLNVIQISQRIKLENNKIQCEKLTKFSELLSMQLLAYEVGMFEFAEEIDPNIDFDRKMKNFLDETSRLFNLAEFEKLEKKFRNATSIEKLKNYIDGELVALNDYINEFLKDIIMSEFTVQSRYYLNFSIEDQVQIDSTLMTFSALKILLNDLKDYLEHLDN
% T cell responding donors to protein [4]: 0 of 24

B4: 24 (protein, listed as Dermatophagoides pteronyssinus)
chain: DPVQQRPTLRGVTVRVGPFVKENNGKFEGFIPDLVQAISEKVGFDYTLYLSPDGRYGNVISDGNVTGMIGEVYNKKADFAAADLTMTEARENYITFTEPFMINQLAALIRREDAEGLNTLEDLAKAQETFPKRKRIVLGTLRNGATNYFLSKSDDPLAKKIYEQIKADDQSVVKSISEGVERVDKQGGYAFIMESASAEHEIANNCKLTMLLDWRNLFPRKYAFALPKDSPYLEHFNNAIKQLNSEGKIAELRRKYWANNCAENKTKDDKN
% T cell responding donors to protein [4]: 3 of 24

B5: 20 (protein, listed as Dermatophagoides pteronyssinus)
chain: NWQMVWQDEFNGGHLDQNHWEFETGGGGWGNNELEFYTANRSQNVRVENGHLVIDVRVESYGGRDFTSGRIHSKQAWAYGKFEARARLPSGHHLWPAIWMFPRDSKYGPWAASGEIDIMEYRGDVHDKIEGTIHYGGQWPNNIYTGSGPHHFNVDFSKDFHNFAVEWDTKEIRWYMDGNKYFSVNIDRNMWSGKGNNPYNKNGQPFDQPFRWILNVAVGGNFFGPGPYVTPDQARHWQKHTMEIDYVRVYQWR
% T cell responding donors to protein [4]: 6 of 24

B6: 44 (protein, listed as Dermatophagoides pteronyssinus)
chain: VVIKVENLPEQCDYTQCPKWSKDDINVHLVAHTHDDVGWLKTVEQYYYGLKNDIQRAGVQYILDTMIEELIRNKDRRFIYVEIAFFWKWWQEQNEEQRMIVKELVRTGQLEFINGGWSMPDEAATHYNSLIDQSTWGLRQLNDTFGRCGHPKVTWQIDPFGHSKEMANLYAQMGYDALFFARQDYQDRENRMSNRTLEHVWQGSDDLGEIGDIFTGMMFSGYGPIEFNWDITNGPEDAVVDNPESEEYNVPDKIRRFVEKAKYFGQFYATNHFMFPMGTDFQYTDAHTWFKNLDKLINAVNKAGKGVRAFYSTPSCYAHALYEQNRTWTTKTDDFFPYASDEHAYWTGYFTSRPAIKRMERIGNNLLQACKQLDVLADNNGRFEMNLTKMREAMGVMQHHDAVTGTEKQHVAFNYAKMLDSAMLQCRHIINESYKKLLPKSSTSEHEFCPYLNISSCPTTEMGESRIIYLYNPLGHRLINHTVRLPIKNGYYYRIQDQNNQSVPSVLVPIPEFVQKIPGRKSVATKELVFRVPVIEPLGITTMYMYVDKNEQPNSAIEIKGENPDDNDDKSKWLVLTKNLIVEFYSNGTISRISIDKLHQSISISNEFRLYHGAGGTGRHSGAYIFRPNEQKTFPVTNKIKSTFFIDRKYHIVQEVHQQFDSSFVGQIIRMDKYNDNVEFDFVVGPIPVNDQIGKEIIASYKTDLENDETFYTDANGRQMLRRRWNYRPSWKYNVQEPISGNYYPVNSRIAIRDEKQSLQMTIMTDRSQGGSLSPEQINGSIDIMIHRRLLHDDYFGVGEALNEPGVDGHGLVIRGKHLLLLNSIKQSASEHRPLAQQMFMEPIISFTSIESNKQAEKQSNQYIGLNNDLPSNVHLLTLEQWHSKRYLLRLEHFYQSNEDTELSKPVKLSLRHLFKSFEIIAVEELTLGANQPISSLKNRLHYRYNRPLEQRQQQQSSLLLDDPKIEGENFDIHLSPMQIRTFLIDIKRN
% T cell responding donors to protein [4]: 7 of 24

B7: 4 (protein, listed as Dermatophagoides pteronyssinus)
chain: QVYCNGAAIVSAARSQIGVPYSWGGGGIHGKSRGIGEGANTVGFDCSGLAQYSVYQGTHKVLARVASGQYSDPKCHHVAYGSHQPGDLVFFGNPIHHVGIVSAHGRMINAPHTGTNVREENIWSDHIANVARCW
% T cell responding donors to protein [4]: 8 of 24

B8: A003: house dust mite protein; SEQ ID NO: 2 (Der f), 3 (Der p), 305 (Blo t) (protein)
chain: MAIDGKYQMESSEHFEEFVKEMGLDVDMTNVDLSKTSTMEICKDGDVYHIKSETAGIAHEIKFKVGEEFEDDMNGHKFKNVVTMECDNKMVQKKTSADGGKVVNVVREFTDAGCTVKSTYNTVTWTRVYKRM
# of individuals of 14 with positive BAT test ([1]; 1 ng/ml): 0 | # of individuals of 14 with positive BAT test ([1]; 10 ng/ml): 0 | # of individuals of 14 with positive BAT test ([1]; 100 ng/ml): 0 | # of individuals of 14 with positive BAT test ([1]; 1000 ng/ml): 1 | % HDM allergic individuals with cytokine production in ex-vivo T cell assay IL-5 [2]: 6% | % HDM allergic individuals with cytokine production in ex-vivo T cell assay IL-9 [2]: 0% | % HDM allergic individuals with cytokine production in ex-vivo T cell assay IL-10 [2]: 19% | % HDM allergic individuals with cytokine production in ex-vivo T cell assay IL-13 [2]: 13% | % HDM allergic individuals with cytokine production in ex-vivo T cell assay IL-17 [2]: 13% | % HDM allergic individuals with cytokine production in ex-vivo T cell assay IL-31 [2]: 0% | % HDM allergic individuals with cytokine production in ex-vivo T cell assay INF-g [2]: 0% | % non-allergic individuals with cytokine production in ex-vivo T cell assay IL-5 [2]: 0% | % non-allergic individuals with cytokine production in ex-vivo T cell assay IL-9 [2]: 0% | % non-allergic individuals with cytokine production in ex-vivo T cell assay IL-10 [2]: 17% | % non-allergic individuals with cytokine production in ex-vivo T cell assay IL-13 [2]: 0% | % non-allergic individuals with cytokine production in ex-vivo T cell assay IL-17 [2]: 17% | % non-allergic individuals with cytokine production in ex-vivo T cell assay IL-31 [2]: 0% | % non-allergic individuals with cytokine production in ex-vivo T cell assay INF-g [2]: 0% | % responders of in-vitro T cell proliferation test, Allergic [3]: 3% | % responders of in-vitro T cell proliferation test, Non-allergics [3]: 0%

B9: 16 (protein, listed as Dermatophagoides pteronyssinus)
chain: MSKPIFYYHPFSGPCRTVSTVAKILNVDMEMKKLDLLTKEHLNPEFLKVNPFHKVPTFVDSDGFVVDESRVIAMYLVESRKPDSFLYPKNDLKKRIQIDRWLHYDINLSTTISAPMFCVFRGHQVQDYQVEQGKETLKTLDGVMQSFEGKFLTGADQFTLADIAMYFSLNTMEVYPKYFKFDDYPNLKSWYHRVAEALKQYDTEGTIPKAIETMKQFIQQRAAEAEKH
% T cell responding donors to protein [4]: 3 of 24
